The test has as its target human folate receptor alpha (hFolRα) on cells (human) (UniProt P15328). In words: cell-based or functional assay.

Chain of human folate receptor alpha (hFolRα) on cells (human) (P15328 25-234 limits assumed): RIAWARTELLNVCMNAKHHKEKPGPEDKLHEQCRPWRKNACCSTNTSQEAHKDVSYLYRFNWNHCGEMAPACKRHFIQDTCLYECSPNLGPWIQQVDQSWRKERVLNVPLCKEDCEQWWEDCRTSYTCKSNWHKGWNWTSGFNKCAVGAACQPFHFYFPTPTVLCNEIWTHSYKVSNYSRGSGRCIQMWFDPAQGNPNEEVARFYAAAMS

Consider “ADC Molecule 21 (IMGN853 surrogate, Mov19-sulfo-SPDB-DM4) (antibody)”, for which the fold shift of cell killing EC50 on Igrov1 cells on addition of naked antibody was 3 fold.

These data come from patent publication US20220047716A1, “COMBINATION THERAPIES WITH ANTI-FOLATE RECEPTOR ANTIBODY CONJUGATES” (SUTRO BIOPHARMA, INC., priority 2018, published 2022).
